Test results taken from IntAct's records for PubMed 31515488.

B1: Zinc finger protein with KRAB and SCAN domains 4 (Homo sapiens), Q969J2 (parent)
chain: MAREPRKNAALDAQSAEDQTGLLTVKVEKEEASALTAEVRAPCSPARGPERSRQRFRGFRYPEAAGPREALSRLRELCGQWLQPEMHSKEQILELLVLEQFLTILPGNLQSWVREQHPESGEEVVVLLEYLERQLDEPAPQVPVGDQGQELLCCKMALLTQTQGSQSSQCQPMKALFKHESLGSQPLHDRVLQVPGLAQGGCCREDAMVASRLTPGSQGLLKMEDVALTLTPGWTQLDSSQVNLYRDEKQENHSSLVSLGGEIQTKSRDLPPVKKLPEKEHGKICHLREDIAQIPTHAEAGEQEGRLQRKQKNAIGSRRHYCHECGKSFAQSSGLTKHRRIHTGEKPYECEDCGKTFIGSSALVIHQRVHTGEKPYECEECGKVFSHSSNLIKHQRTHTGEKPYECDDCGKTFSQSCSLLEHHKIHTGEKPYQCNMCGKAFRRNSHLLRHQRIHGDKNVQNPEHGESWESQGRTESQWENTEAPVSYKCNECERSFTRNRSLIEHQKIHTGEKPYQCDTCGKGFTRTSYLVQHQRSHVGKKTLSQ
B2: Cyclin-H (Homo sapiens), P51946 (parent)
chain: MYHNSSQKRHWTFSSEEQLARLRADANRKFRCKAVANGKVLPNDPVFLEPHEEMTLCKYYEKRLLEFCSVFKPAMPRSVVGTACMYFKRFYLNNSVMEYHPRIIMLTCAFLACKVDEFNVSSPQFVGNLRESPLGQEKALEQILEYELLLIQQLNFHLIVHNPYRPFEGFLIDLKTRYPILENPEILRKTADDFLNRIALTDAYLLYTPSQIALTAILSSASRAGITMESYLSESLMLKENRTCLSQLLDIMKSMRNLVKKYEPPRSEEVAVLKQKLERCHSAELALNVITKKRKGYEDDDYVSKKSKHEEEEWTDDDLVESL
B3: Tuftelin-interacting protein 11 (Homo sapiens), Q9UBB9 (parent)
chain: MSLSHLYRDGEGRIDDDDDERENFEITDWDLQNEFNPNRQRHWQTKEEATYGVWAERDSDDERPSFGGKRARDYSAPVNFISAGLKKGAAEEAELEDSDDEEKPVKQDDFPKDFGPRKLKTGGNFKPSQKGFAGGTKSFMDFGSWERHTKGIGQKLLQKMGYVPGRGLGKNAQGIINPIEAKQRKGKGAVGAYGSERTTQSMQDFPVVDSEEEAEEEFQKELSQWRKDPSGSKKKPKYSYKTVEELKAKGRISKKLTAPQKELSQVKVIDMTGREQKVYYSYSQISHKHNVPDDGLPLQSQQLPQSGKEAKAPGFALPELEHNLQLLIDLTEQEIIQNDRQLQYERDMVVNLFHELEKMTEVLDHEERVISNLSKVLEMVEECERRMQPDCSNPLTLDECARIFETLQDKYYEEYRMSDRVDLAVAIVYPLMKEYFKEWDPLKDCTYGTEIISKWKSLLENDQLLSHGGQDLSADAFHRLIWEVWMPFVRNIVTQWQPRNCDPMVDFLDSWVHIIPVWILDNILDQLIFPKLQKEVENWNPLTDTVPIHSWIHPWLPLMQARLEPLYSPIRSKLSSALQKWHPSDSSAKLILQPWKDVFTPGSWEAFMVKNIVPKLGMCLGELVINPHQQHMDAFYWVIDWEGMISVSSLVGLLEKHFFPKWLQVLCSWLSNSPNYEEITKWYLGWKSMFSDQVLAHPSVKDKFNEALDIMNRAVSSNVGAYMQPGARENIAYLTHTERRKDFQYEAMQERREAENMAQRGIGVAASSVPMNFKDLIETKAEEHNIVFMPVIGKRHEGKQLYTFGRIVIYIDRGVVFVQGEKTWVPTSLQSLIDMAK

Variants of: B1
Conditions: with zsc32_human ZSCAN32, Q9NX65
Chain of zsc32_human ZSCAN32, Q9NX65 (Q9NX65 whole entry): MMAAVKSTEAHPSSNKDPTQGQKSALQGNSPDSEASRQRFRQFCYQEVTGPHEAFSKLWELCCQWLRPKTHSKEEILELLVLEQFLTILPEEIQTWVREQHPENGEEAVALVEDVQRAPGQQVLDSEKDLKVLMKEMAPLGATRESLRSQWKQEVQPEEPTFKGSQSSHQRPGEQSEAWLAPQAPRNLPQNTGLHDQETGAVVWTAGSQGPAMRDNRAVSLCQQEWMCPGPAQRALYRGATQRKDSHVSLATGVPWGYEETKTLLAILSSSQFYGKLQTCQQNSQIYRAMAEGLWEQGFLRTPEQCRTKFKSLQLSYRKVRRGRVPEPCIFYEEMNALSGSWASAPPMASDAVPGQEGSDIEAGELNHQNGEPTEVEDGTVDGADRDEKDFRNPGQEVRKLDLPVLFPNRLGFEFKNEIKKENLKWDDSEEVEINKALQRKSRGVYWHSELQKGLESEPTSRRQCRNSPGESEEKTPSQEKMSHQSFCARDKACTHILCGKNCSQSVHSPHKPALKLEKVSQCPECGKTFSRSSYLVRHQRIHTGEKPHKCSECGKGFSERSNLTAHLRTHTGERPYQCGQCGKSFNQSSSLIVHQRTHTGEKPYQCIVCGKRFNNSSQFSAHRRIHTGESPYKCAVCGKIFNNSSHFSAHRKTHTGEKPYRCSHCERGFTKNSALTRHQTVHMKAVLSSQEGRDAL

Row | Variant | effect of a mutation on the interaction
1 | MAREPRKNAALDAQSAEDQTGLLTVKVEKEEAFALTAEVRAPCSPARGPERSRQRFRGFRYPEAAGPREALSRLRELCGQWLQPEMHSKEQILELLVLEQFLTILPGNLQSWVREQHPESGEEVVVLLEYLERQLDEPAPQVPVGDQGQELLCCKMALLTQTQGSQSSQCQPMKALFKHESLGSQPLHDRVLQVPGLAQGGCCREDAMVASRLTPGSQGLLKMEDVALTLTPGWTQLDSSQVNLYRDEKQENHSSLVSLGGEIQTKSRDLPPVKKLPEKEHGKICHLREDIAQIPTHAEAGEQEGRLQRKQKNAIGSRRHYCHECGKSFAQSSGLTKHRRIHTGEKPYECEDCGKTFIGSSALVIHQRVHTGEKPYECEECGKVFSHSSNLIKHQRTHTGEKPYECDDCGKTFSQSCSLLEHHKIHTGEKPYQCNMCGKAFRRNSHLLRHQRIHGDKNVQNPEHGESWESQGRTESQWENTEAPVSYKCNECERSFTRNRSLIEHQKIHTGEKPYQCDTCGKGFTRTSYLVQHQRSHVGKKTLSQ [S33F] | with no effect

Variants of: B1
Conditions: with zksc7_human ZKSCAN7, Q9P0L1
Chain of zksc7_human ZKSCAN7, Q9P0L1 (Q9P0L1 whole entry): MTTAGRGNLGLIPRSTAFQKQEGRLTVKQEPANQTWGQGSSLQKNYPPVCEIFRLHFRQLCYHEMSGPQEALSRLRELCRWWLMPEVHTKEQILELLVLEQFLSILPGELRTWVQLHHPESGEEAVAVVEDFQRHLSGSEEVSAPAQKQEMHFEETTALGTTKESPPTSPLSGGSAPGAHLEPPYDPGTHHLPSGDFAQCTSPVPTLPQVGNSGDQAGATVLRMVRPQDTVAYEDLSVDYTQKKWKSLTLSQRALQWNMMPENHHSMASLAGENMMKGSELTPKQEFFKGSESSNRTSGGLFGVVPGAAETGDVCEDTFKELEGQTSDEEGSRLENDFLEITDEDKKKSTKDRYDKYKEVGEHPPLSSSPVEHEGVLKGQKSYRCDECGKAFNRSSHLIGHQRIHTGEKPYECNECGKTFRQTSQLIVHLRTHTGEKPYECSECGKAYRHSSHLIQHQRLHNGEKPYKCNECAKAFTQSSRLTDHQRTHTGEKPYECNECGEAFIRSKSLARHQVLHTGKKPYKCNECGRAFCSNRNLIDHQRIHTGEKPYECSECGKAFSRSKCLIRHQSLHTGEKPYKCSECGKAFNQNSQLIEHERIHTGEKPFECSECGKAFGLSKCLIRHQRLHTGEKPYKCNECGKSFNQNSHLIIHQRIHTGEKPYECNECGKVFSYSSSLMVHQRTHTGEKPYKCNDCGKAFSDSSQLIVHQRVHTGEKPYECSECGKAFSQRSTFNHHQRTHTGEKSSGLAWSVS

Row | Variant | effect of a mutation on the interaction
2 | MAREPRKNAALDAQSAEDQTGLLTVKVEKEEAFALTAEVRAPCSPARGPERSRQRFRGFRYPEAAGPREALSRLRELCGQWLQPEMHSKEQILELLVLEQFLTILPGNLQSWVREQHPESGEEVVVLLEYLERQLDEPAPQVPVGDQGQELLCCKMALLTQTQGSQSSQCQPMKALFKHESLGSQPLHDRVLQVPGLAQGGCCREDAMVASRLTPGSQGLLKMEDVALTLTPGWTQLDSSQVNLYRDEKQENHSSLVSLGGEIQTKSRDLPPVKKLPEKEHGKICHLREDIAQIPTHAEAGEQEGRLQRKQKNAIGSRRHYCHECGKSFAQSSGLTKHRRIHTGEKPYECEDCGKTFIGSSALVIHQRVHTGEKPYECEECGKVFSHSSNLIKHQRTHTGEKPYECDDCGKTFSQSCSLLEHHKIHTGEKPYQCNMCGKAFRRNSHLLRHQRIHGDKNVQNPEHGESWESQGRTESQWENTEAPVSYKCNECERSFTRNRSLIEHQKIHTGEKPYQCDTCGKGFTRTSYLVQHQRSHVGKKTLSQ [S33F] | with no effect

Variants of: B1
Conditions: with znf24_human ZNF24, P17028
Chain of znf24_human ZNF24, P17028 (P17028 whole entry): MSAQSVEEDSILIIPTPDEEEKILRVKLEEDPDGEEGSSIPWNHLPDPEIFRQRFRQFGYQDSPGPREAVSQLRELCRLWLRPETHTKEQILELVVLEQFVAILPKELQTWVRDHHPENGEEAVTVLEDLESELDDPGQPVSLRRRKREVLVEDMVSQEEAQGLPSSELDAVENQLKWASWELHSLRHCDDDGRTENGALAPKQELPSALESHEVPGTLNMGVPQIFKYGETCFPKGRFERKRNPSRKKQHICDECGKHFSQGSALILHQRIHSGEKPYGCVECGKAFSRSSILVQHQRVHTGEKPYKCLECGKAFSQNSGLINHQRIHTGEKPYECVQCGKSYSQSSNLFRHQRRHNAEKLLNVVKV

Row | Variant | effect of a mutation on the interaction
3 | MAREPRKNAALDAQSAEDQTGLLTVKVEKEEAFALTAEVRAPCSPARGPERSRQRFRGFRYPEAAGPREALSRLRELCGQWLQPEMHSKEQILELLVLEQFLTILPGNLQSWVREQHPESGEEVVVLLEYLERQLDEPAPQVPVGDQGQELLCCKMALLTQTQGSQSSQCQPMKALFKHESLGSQPLHDRVLQVPGLAQGGCCREDAMVASRLTPGSQGLLKMEDVALTLTPGWTQLDSSQVNLYRDEKQENHSSLVSLGGEIQTKSRDLPPVKKLPEKEHGKICHLREDIAQIPTHAEAGEQEGRLQRKQKNAIGSRRHYCHECGKSFAQSSGLTKHRRIHTGEKPYECEDCGKTFIGSSALVIHQRVHTGEKPYECEECGKVFSHSSNLIKHQRTHTGEKPYECDDCGKTFSQSCSLLEHHKIHTGEKPYQCNMCGKAFRRNSHLLRHQRIHGDKNVQNPEHGESWESQGRTESQWENTEAPVSYKCNECERSFTRNRSLIEHQKIHTGEKPYQCDTCGKGFTRTSYLVQHQRSHVGKKTLSQ [S33F] | with no effect

Variants of: B1
Conditions: with zn496_human ZNF496, Q96IT1
Chain of zn496_human ZNF496, Q96IT1 (Q96IT1 whole entry): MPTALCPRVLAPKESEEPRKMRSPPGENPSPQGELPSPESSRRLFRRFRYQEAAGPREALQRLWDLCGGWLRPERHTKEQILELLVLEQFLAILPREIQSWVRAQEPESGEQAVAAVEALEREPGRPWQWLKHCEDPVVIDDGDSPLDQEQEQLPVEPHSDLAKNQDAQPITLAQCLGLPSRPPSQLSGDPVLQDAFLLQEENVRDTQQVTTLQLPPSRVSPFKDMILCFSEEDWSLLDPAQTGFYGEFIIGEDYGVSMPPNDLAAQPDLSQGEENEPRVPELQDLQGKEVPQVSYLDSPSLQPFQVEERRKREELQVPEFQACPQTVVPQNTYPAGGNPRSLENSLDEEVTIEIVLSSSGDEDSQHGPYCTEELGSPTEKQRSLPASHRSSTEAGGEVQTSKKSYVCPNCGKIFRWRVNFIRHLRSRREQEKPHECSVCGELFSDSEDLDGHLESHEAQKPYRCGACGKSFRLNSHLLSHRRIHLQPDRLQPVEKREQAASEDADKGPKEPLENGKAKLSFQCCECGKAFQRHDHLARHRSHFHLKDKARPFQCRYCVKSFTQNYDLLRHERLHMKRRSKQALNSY

Row | Variant | effect of a mutation on the interaction
4 | MAREPRKNAALDAQSAEDQTGLLTVKVEKEEAFALTAEVRAPCSPARGPERSRQRFRGFRYPEAAGPREALSRLRELCGQWLQPEMHSKEQILELLVLEQFLTILPGNLQSWVREQHPESGEEVVVLLEYLERQLDEPAPQVPVGDQGQELLCCKMALLTQTQGSQSSQCQPMKALFKHESLGSQPLHDRVLQVPGLAQGGCCREDAMVASRLTPGSQGLLKMEDVALTLTPGWTQLDSSQVNLYRDEKQENHSSLVSLGGEIQTKSRDLPPVKKLPEKEHGKICHLREDIAQIPTHAEAGEQEGRLQRKQKNAIGSRRHYCHECGKSFAQSSGLTKHRRIHTGEKPYECEDCGKTFIGSSALVIHQRVHTGEKPYECEECGKVFSHSSNLIKHQRTHTGEKPYECDDCGKTFSQSCSLLEHHKIHTGEKPYQCNMCGKAFRRNSHLLRHQRIHGDKNVQNPEHGESWESQGRTESQWENTEAPVSYKCNECERSFTRNRSLIEHQKIHTGEKPYQCDTCGKGFTRTSYLVQHQRSHVGKKTLSQ [S33F] | with no effect

Variants of: B2
Conditions: with klc3_human KLC3, Q6P597
Chain of klc3_human KLC3, Q6P597 (Q6P597 whole entry): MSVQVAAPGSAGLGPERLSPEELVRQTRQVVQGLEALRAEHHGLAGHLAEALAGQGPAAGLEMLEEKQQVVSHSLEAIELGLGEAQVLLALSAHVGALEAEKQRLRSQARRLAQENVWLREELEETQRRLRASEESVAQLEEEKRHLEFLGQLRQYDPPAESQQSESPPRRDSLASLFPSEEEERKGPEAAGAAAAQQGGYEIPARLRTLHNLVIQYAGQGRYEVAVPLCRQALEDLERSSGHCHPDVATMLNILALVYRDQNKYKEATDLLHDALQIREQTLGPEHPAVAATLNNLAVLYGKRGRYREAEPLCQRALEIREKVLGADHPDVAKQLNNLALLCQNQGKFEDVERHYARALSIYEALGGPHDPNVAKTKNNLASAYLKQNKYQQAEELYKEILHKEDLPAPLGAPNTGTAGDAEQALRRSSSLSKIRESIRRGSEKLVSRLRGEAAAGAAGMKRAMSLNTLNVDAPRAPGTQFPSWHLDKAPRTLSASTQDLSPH

Row | Variant | effect of a mutation on the interaction
5 | MYHNSSQKRHWTFSSEEQLARLRADANRKFRCKAVANGKVLPNDPVFLEPHEEMTLCKYYEKRLLEFCSVFKPAMPRSVVGTACMYFKRFYLNNSVMEYHPRIIMLTCAFLACKVDEFNVSSPQFVGNLRESPLGQEKALEQILEYELLLIQQLTFHLIVHNPYRPFEGFLIDLKTRYPILENPEILRKTADDFLNRIALTDAYLLYTPSQIALTAILSSASRAGITMESYLSESLMLKENRTCLSQLLDIMKSMRNLVKKYEPPRSEEVAVLKQKLERCHSAELALNVITKKRKGYEDDDYVSKKSKHEEEEWTDDDLVESL [N155T] | disrupting interaction strength

Variants of: B2
Conditions: with lipa1_human PPFIA1, Q13136
Chain of lipa1_human PPFIA1, Q13136 (Q13136 whole entry): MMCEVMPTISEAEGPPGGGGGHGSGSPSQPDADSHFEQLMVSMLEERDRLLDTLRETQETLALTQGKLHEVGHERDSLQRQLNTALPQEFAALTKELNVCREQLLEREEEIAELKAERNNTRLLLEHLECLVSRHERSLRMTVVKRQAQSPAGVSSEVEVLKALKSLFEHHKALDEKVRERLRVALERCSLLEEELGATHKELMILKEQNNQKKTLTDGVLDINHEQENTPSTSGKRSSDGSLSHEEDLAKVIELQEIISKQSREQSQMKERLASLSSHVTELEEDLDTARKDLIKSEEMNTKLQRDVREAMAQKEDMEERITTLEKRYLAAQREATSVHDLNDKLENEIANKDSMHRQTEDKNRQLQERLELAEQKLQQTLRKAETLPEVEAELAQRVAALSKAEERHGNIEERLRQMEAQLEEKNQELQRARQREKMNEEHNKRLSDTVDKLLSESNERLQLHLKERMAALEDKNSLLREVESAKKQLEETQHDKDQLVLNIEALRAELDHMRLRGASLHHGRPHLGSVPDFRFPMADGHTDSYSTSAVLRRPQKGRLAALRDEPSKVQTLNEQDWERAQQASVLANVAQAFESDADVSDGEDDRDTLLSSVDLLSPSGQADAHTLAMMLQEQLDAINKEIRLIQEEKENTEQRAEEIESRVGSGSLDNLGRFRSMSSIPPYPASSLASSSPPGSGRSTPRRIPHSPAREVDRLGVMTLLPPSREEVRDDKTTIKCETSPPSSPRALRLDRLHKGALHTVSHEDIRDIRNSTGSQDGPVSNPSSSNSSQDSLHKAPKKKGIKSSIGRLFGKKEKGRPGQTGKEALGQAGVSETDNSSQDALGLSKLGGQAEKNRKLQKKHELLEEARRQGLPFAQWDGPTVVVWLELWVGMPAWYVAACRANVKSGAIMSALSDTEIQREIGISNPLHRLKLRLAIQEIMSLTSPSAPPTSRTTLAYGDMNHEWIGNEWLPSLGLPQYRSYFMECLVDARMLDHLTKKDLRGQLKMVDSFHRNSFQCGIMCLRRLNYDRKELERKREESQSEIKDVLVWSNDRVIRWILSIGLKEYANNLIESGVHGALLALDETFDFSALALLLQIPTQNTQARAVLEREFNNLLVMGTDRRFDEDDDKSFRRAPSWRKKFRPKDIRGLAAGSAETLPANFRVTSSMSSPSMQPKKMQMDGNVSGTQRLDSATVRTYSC

Row | Variant | effect of a mutation on the interaction
6 | MYHNSSQKRHWTFSSEEQLARLRADANRKFRCKAVANGKVLPNDPVFLEPHEEMTLCKYYEKRLLEFCSVFKPAMPRSVVGTACMYFKRFYLNNSVMEYHPRIIMLTCAFLACKVDEFNVSSPQFVGNLRESPLGQEKALEQILEYELLLIQQLTFHLIVHNPYRPFEGFLIDLKTRYPILENPEILRKTADDFLNRIALTDAYLLYTPSQIALTAILSSASRAGITMESYLSESLMLKENRTCLSQLLDIMKSMRNLVKKYEPPRSEEVAVLKQKLERCHSAELALNVITKKRKGYEDDDYVSKKSKHEEEEWTDDDLVESL [N155T] | disrupting interaction strength

Variants of: B2
Conditions: with dus12_human DUSP12, Q9UNI6
Chain of dus12_human DUSP12, Q9UNI6 (Q9UNI6 whole entry): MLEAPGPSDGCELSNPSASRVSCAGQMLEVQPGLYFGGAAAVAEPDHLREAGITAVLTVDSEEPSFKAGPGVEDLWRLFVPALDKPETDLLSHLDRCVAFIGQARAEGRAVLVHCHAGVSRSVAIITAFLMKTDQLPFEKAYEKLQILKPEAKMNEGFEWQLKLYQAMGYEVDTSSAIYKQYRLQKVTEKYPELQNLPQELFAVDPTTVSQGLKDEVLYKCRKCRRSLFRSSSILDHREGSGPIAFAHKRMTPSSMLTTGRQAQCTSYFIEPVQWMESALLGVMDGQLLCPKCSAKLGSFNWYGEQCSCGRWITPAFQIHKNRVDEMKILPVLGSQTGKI

Row | Variant | effect of a mutation on the interaction
7 | MYHNSSQKRHWTFSSEEQLARLRADANRKFRCKAVANGKVLPNDPVFLEPHEEMTLCKYYEKRLLEFCSVFKPAMPRSVVGTACMYFKRFYLNNSVMEYHPRIIMLTCAFLACKVDEFNVSSPQFVGNLRESPLGQEKALEQILEYELLLIQQLTFHLIVHNPYRPFEGFLIDLKTRYPILENPEILRKTADDFLNRIALTDAYLLYTPSQIALTAILSSASRAGITMESYLSESLMLKENRTCLSQLLDIMKSMRNLVKKYEPPRSEEVAVLKQKLERCHSAELALNVITKKRKGYEDDDYVSKKSKHEEEEWTDDDLVESL [N155T] | disrupting interaction strength

Variants of: B3
Conditions: with lca5l_human LCA5L

Row | Variant | effect of a mutation on the interaction
8 | M140V | with no effect

Variants of: B3
Conditions: with ccnd3_human CCND3, P30281
Chain of ccnd3_human CCND3, P30281 (P30281 whole entry): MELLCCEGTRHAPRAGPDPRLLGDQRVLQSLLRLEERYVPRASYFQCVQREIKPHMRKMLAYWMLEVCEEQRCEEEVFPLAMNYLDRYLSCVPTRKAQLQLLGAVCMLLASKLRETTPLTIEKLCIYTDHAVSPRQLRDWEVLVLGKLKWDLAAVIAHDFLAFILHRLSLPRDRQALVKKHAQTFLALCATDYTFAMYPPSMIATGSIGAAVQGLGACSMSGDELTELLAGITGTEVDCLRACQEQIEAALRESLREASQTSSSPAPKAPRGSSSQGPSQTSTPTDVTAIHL

Row | Variant | effect of a mutation on the interaction
9 | M140V | with no effect

Variants of: B3
Conditions: with cenpu_human CENPU

Row | Variant | effect of a mutation on the interaction
10 | M140V | with no effect
